Source: paper PMC9064986, “Crystal structures of BMPRII extracellular domain in binary and ternary receptor complexes with BMP10” (Nature Communications, 2022)
Each block holds one binder with its values, some of them ahead of it.

B1: Recombinant human BMP10 growth factor (GF)-domain (R&D Systems) (ligand, UniProt O95393 317-424, looked up)
chain: NAKGNYCKRTPLYIDFKEIGWDSWIIAPPGYEAYECRGVCNYPLAEHLTPTKHAIIQALVHLKNSQKASKACCVPTKLEPISILYLDKGVVTYKFKYEGMAVSECGCR
notes: growth factor (GF) domain of human BMP10, the cut product of the BMP10 precursor; also called BMP10 GF-domain; source: bought: R&D Systems (cat. No. 2926-BP-025/CF)

Columns and labels:
BMPRII-Fc (R&D Systems) = biological target: T1, BMPRII-Fc (R&D Systems) (UniProt Q13873 27-150); assay: SPR; BMP10 flowed over a BMPRII-Fc surface, with ALK1 present (Supplementary Fig 5c); conditions: both partners purified
T1 construct: BMPRII part of the bought Fc fusion; source: bought: R&D Systems (cat. No. 811-BR)
T1 sequence (looked up): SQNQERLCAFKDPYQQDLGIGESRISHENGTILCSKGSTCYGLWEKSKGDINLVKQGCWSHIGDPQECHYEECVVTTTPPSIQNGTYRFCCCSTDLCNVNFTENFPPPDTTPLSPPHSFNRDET

BMPRII ECD Q92H = biological target: T2, BMPRII ECD Q92H (human, UniProt Q13873-1 27-150, Q92H); assay: SPR; Biacore T200; BMP10 GF-domain amine-coupled to a CM5 chip (1300 RU); ALK1-Fc, BMPRII-Fc or monomeric BMPRII WT and mutant ECDs injected at 40 ul/min; 10 mM HEPES pH 7.4, 150 mM NaCl, 3.4 mM EDTA, 0.5 mg/ml BSA, 0.005% P20, 25 °C; 1:1 model, KD = kd/ka; conditions: both partners purified
T2 construct: BMPRII (BMPR2) extracellular domain, human, amino acids 27-150 of the cDNA NM_001204; mutation found in PAH patients; source: E. coli Rosetta DE3, periplasm, purified (HisTrap, TEV cleavage, Superdex 75); not shown: DsbA, N-terminal, cleaved; His6, N-terminal, cleaved
T2 sequence (looked up): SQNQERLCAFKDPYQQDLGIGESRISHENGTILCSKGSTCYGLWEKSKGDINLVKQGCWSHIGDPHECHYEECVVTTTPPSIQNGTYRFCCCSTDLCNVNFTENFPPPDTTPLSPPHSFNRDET

BMPRII ECD N126S [1] = biological target: T3, BMPRII ECD N126S (human, UniProt Q13873-1 27-150, N126S); assay: as above; conditions: both partners purified
T3 construct: BMPRII (BMPR2) extracellular domain, human, amino acids 27-150 of the cDNA NM_001204; mutation found in PAH patients; source: E. coli Rosetta DE3, periplasm, purified (HisTrap, TEV cleavage, Superdex 75); not shown: DsbA, N-terminal, cleaved; His6, N-terminal, cleaved
T3 sequence (looked up): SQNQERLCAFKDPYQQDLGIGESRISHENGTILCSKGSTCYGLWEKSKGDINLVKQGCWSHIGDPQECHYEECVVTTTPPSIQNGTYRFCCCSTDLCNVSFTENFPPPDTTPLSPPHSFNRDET

BMPRII ECD E98K [2] = biological target: T4, BMPRII ECD E98K (human, UniProt Q13873-1 27-150, E98K); assay: as above; conditions: both partners purified
T4 construct: BMPRII (BMPR2) extracellular domain, human, amino acids 27-150 of the cDNA NM_001204; mutation found in PAH patients; source: E. coli Rosetta DE3, periplasm, purified (HisTrap, TEV cleavage, Superdex 75); not shown: DsbA, N-terminal, cleaved; His6, N-terminal, cleaved
T4 sequence (looked up): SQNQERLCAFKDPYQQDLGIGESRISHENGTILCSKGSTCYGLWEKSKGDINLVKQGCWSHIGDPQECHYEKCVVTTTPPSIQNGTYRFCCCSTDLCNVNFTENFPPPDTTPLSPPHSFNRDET

[3] = biological target: the molecule itself; assay: crystal structure; BMP10:BMPRII ECD binary complex, two crystal forms (P212121, 1.48 Å; C2, 2.40 Å); complex refolded from denatured BMP10 GF-domain with excess BMPRII ECD
BMPRII ECD N126S [4] = biological target: T3, BMPRII ECD N126S; assay: native gel or EMSA; prodomain displacement: Pro:BMP10 premixed with BMPRII WT or mutant ECDs at 1:2 and 1:5 molar ratio, 20 mM Tris, 150 mM NaCl, pH 7.4, 30 min at room temperature, 12% native PAGE, Coomassie, densitometry of Pro:BMP10/prodomain; conditions: both partners purified
BMPRII ECD E98K [5] = biological target: T4, BMPRII ECD E98K; assay: as above; conditions: both partners purified
[6] = biological target: B1; assay: SPR; Biacore T200; BMP10 GF-domain amine-coupled to a CM5 chip (1300 RU); ALK1-Fc, BMPRII-Fc or monomeric BMPRII WT and mutant ECDs injected at 40 ul/min; 10 mM HEPES pH 7.4, 150 mM NaCl, 3.4 mM EDTA, 0.5 mg/ml BSA, 0.005% P20, 25 °C; 1:1 model, KD = kd/ka; conditions: both partners purified

fold reduction in affinity against WT BMPRII ECD [6]: > 100 fold
B5: BMPRII ECD G89W (domain or fragment, human, UniProt Q13873-1 27-150, looked up)
chain: SQNQERLCAFKDPYQQDLGIGESRISHENGTILCSKGSTCYGLWEKSKGDINLVKQGCWSHIWDPQECHYEECVVTTTPPSIQNGTYRFCCCSTDLCNVNFTENFPPPDTTPLSPPHSFNRDET
notes: BMPRII (BMPR2) extracellular domain, human, amino acids 27-150 of the cDNA NM_001204; source: E. coli Rosetta DE3, periplasm, purified (HisTrap, TEV cleavage, Superdex 75); not shown: DsbA, N-terminal, cleaved; His6, N-terminal, cleaved

fold tighter binding than WT BMPRII ECD [6]: ~4 fold
B6: BMPRII ECD S107P (domain or fragment, human, UniProt Q13873-1 27-150, looked up)
chain: SQNQERLCAFKDPYQQDLGIGESRISHENGTILCSKGSTCYGLWEKSKGDINLVKQGCWSHIGDPQECHYEECVVTTTPPPIQNGTYRFCCCSTDLCNVNFTENFPPPDTTPLSPPHSFNRDET
notes: BMPRII (BMPR2) extracellular domain, human, amino acids 27-150 of the cDNA NM_001204; mutation found in PAH patients; source: E. coli Rosetta DE3, periplasm, purified (HisTrap, TEV cleavage, Superdex 75); not shown: DsbA, N-terminal, cleaved; His6, N-terminal, cleaved

More lines, now with the values behind:

Binder: B1
fold weaker affinity with ALK1 present than without ALK1 (BMPRII-Fc (R&D Systems)): ~5 fold
binding result (BMPRII ECD Q92H): binds
binding result (BMPRII ECD N126S [1]): binds
binding result (BMPRII ECD E98K [2]): binds

B2: BMP10 growth factor (GF)-domain from Pro:BMP10 made in HEK EBNA cells (ligand, human, UniProt O95393 317-424, looked up)
chain: NAKGNYCKRTPLYIDFKEIGWDSWIIAPPGYEAYECRGVCNYPLAEHLTPTKHAIIQALVHLKNSQKASKACCVPTKLEPISILYLDKGVVTYKFKYEGMAVSECGCR
notes: growth factor (GF) domain of human BMP10, cut by furin from the product of the full-length open reading frame (NM_014482); also called BMP10 GF-domain; source: HEK EBNA, full-length BMP10 cDNA co-transfected with FURIN, purified from conditioned medium as Pro:BMP10
binding result [3]: binds
binding result (BMPRII ECD N126S [4]): binds
binding result (BMPRII ECD E98K [5]): binds

B3: BMPRII ECD G89A (domain or fragment, human, UniProt Q13873-1 27-150, looked up)
chain: SQNQERLCAFKDPYQQDLGIGESRISHENGTILCSKGSTCYGLWEKSKGDINLVKQGCWSHIADPQECHYEECVVTTTPPSIQNGTYRFCCCSTDLCNVNFTENFPPPDTTPLSPPHSFNRDET
notes: as for B5
fold reduction in affinity against WT BMPRII ECD [6]: < 2 fold

B4: BMPRII ECD G89E (domain or fragment, human, UniProt Q13873-1 27-150, looked up)
chain: SQNQERLCAFKDPYQQDLGIGESRISHENGTILCSKGSTCYGLWEKSKGDINLVKQGCWSHIEDPQECHYEECVVTTTPPSIQNGTYRFCCCSTDLCNVNFTENFPPPDTTPLSPPHSFNRDET
notes: as for B5
fold reduction in affinity against WT BMPRII ECD [6]: > 100 fold
